The values that follow come from US20190315842A1.

For assay [1], the target named is sclerosis autoantigen (Scl-70) (UniProt P11387). Briefly: AtheNA Multi-Lyte ANA, Ab at 25 ug/ml.
The target of assay [2] is systemic lupus erythematosus autoantigen SSA. Briefly: AtheNA Multi-Lyte ANA, Ab at 25 ug/ml.
The target of assay [3] is histidine-tRNA ligase (Jo-1) (UniProt P12081). Briefly: AtheNA Multi-Lyte ANA, Ab at 25 ug/ml.
Assay [4] concerns the target ribonucleoprotein (RNP). Briefly: AtheNA Multi-Lyte ANA, Ab at 25 ug/ml.
Assay [5] concerns the target Sm (sphingomyelin). In words: AtheNA Multi-Lyte ANA, Ab at 25 ug/ml.
The target of assay [6] is centromere B (CentB) (UniProt P07199). In words: AtheNA Multi-Lyte ANA, Ab at 25 ug/ml.
Sequence of centromere B (CentB) (P07199 2-599): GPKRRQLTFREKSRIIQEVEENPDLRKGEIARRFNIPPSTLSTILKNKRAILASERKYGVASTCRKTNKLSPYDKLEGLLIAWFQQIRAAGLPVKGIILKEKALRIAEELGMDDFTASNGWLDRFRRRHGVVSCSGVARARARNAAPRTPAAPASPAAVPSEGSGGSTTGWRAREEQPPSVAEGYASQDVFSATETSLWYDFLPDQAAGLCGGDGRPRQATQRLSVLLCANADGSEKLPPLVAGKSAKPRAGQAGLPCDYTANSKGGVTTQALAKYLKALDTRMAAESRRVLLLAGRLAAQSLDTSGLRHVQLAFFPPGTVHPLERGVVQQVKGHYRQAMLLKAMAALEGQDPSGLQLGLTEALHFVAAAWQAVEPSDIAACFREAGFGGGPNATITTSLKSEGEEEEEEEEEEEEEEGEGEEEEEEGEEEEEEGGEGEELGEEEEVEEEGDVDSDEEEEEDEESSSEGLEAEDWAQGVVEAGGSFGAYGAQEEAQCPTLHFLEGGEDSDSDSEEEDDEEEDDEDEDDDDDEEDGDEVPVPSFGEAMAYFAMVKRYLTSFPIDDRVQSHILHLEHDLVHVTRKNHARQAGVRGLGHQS
The target of assay [7] is systemic lupus erythematosus autoantigen SSB (UniProt P05455). In words: AtheNA Multi-Lyte ANA, Ab at 25 ug/ml.
Sequence of systemic lupus erythematosus autoantigen SSB (P05455 whole entry): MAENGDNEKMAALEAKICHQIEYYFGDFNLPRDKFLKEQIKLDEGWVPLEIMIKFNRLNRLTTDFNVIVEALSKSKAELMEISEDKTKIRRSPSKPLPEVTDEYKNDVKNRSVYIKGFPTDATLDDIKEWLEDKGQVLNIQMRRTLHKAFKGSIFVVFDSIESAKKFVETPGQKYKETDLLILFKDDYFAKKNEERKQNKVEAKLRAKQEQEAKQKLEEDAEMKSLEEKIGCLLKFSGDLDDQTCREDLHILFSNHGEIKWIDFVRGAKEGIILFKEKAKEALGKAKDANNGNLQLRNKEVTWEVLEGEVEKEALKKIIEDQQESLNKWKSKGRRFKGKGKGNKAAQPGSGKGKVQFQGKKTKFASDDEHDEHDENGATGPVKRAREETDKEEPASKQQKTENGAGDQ
In assay [8] the target is histones. Briefly: AtheNA Multi-Lyte ANA, Ab at 25 ug/ml.
Assay [9] concerns the target sclerosis autoantigen (Scl-70) (UniProt P11387). In words: AtheNA Multi-Lyte ANA, Ab at 50 ug/ml.
Assay [10] addresses systemic lupus erythematosus autoantigen SSA. In words: AtheNA Multi-Lyte ANA, Ab at 50 ug/ml.
Assay [11] concerns the target histidine-tRNA ligase (Jo-1) (UniProt P12081). Briefly: AtheNA Multi-Lyte ANA, Ab at 50 ug/ml.
In assay [12] the target is ribonucleoprotein (RNP). In words: AtheNA Multi-Lyte ANA, Ab at 50 ug/ml.
Assay [13] addresses Sm (sphingomyelin). In words: AtheNA Multi-Lyte ANA, Ab at 50 ug/ml.
Assay [14] addresses centromere B (CentB) (UniProt P07199). Briefly: AtheNA Multi-Lyte ANA, Ab at 50 ug/ml.
For assay [15], the target named is systemic lupus erythematosus autoantigen SSB (UniProt P05455). In words: AtheNA Multi-Lyte ANA, Ab at 50 ug/ml.
Assay [16] deals with histones. Briefly: AtheNA Multi-Lyte ANA, Ab at 50 ug/ml.

Sequence of histidine-tRNA ligase (Jo-1) (P12081 2-509): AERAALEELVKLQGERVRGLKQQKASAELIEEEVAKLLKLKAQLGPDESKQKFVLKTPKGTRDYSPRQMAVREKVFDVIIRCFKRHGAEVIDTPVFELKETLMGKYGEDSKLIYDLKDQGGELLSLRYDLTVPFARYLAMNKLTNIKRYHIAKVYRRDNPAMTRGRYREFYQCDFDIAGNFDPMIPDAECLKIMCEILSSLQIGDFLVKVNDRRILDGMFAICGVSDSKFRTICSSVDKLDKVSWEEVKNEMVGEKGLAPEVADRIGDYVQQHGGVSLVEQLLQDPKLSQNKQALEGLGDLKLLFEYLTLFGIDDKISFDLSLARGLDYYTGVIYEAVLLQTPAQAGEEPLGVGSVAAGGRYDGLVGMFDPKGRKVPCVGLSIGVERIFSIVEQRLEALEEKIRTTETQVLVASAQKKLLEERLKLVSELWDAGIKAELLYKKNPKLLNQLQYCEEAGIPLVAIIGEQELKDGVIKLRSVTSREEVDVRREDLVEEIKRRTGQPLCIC
Sequence of sclerosis autoantigen (Scl-70) (P11387 2-765 limits assumed): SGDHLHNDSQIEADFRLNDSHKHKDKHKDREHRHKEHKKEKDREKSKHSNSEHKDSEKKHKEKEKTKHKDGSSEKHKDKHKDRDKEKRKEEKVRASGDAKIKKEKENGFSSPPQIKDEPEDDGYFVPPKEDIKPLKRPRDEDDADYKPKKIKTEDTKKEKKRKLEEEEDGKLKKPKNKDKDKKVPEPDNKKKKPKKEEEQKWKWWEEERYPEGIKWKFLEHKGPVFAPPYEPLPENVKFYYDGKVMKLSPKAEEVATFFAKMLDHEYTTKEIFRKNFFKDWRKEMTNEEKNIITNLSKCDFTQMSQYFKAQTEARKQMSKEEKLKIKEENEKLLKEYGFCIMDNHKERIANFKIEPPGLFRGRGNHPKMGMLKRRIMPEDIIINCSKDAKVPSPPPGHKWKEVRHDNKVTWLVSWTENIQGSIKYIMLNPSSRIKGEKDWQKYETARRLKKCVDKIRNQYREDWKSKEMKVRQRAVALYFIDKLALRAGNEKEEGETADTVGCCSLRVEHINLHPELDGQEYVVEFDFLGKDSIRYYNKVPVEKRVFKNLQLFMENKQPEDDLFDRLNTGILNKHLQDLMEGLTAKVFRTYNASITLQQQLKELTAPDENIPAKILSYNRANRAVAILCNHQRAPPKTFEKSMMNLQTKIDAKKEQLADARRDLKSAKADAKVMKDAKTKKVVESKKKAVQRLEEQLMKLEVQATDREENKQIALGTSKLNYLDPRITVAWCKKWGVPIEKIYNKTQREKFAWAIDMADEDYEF

On to “4e10 (Anti HIV, NIH AIDS Reagent Program) (antibody)”, for which the AtheNA signal worked out at 3 in assay [1]; 75 in [2]; 124 in assay [3]; 13 with ribonucleoprotein (RNP) [4]; 7 with Sm (sphingomyelin) [5]; 7 with centromere B (CentB) [6]. Further, the AtheNA signal in [7] turned out to be 157; with histones [8], 15; in [9], 3; in assay [10], 92; in assay [11], 149; in the assay with ribonucleoprotein (RNP) [12] it was 18. Further, the AtheNA signal in the assay with Sm (sphingomyelin) [13] is 11; with centromere B (CentB) [14], 12; in [15], 184; with histones [16] it was 20.

“SYNAGIS (anti-RSV monoclonal antibody palivizumab)”: the AtheNA signal was found to be 2 in assay [1]; 2 in assay [2]; 1 in [3]; 3 with ribonucleoprotein (RNP) [4]; 2 with Sm (sphingomyelin) [5]; 1 in the assay with centromere B (CentB) [6]. The AtheNA signal was 6 in assay [7]; 1 with histones [8]; 1 in assay [9]; 0 in assay [10]; 1 in assay [11]; 1 with ribonucleoprotein (RNP) [12]. In addition, the AtheNA signal worked out at 4 in the assay with Sm (sphingomyelin) [13], 1 with centromere B (CentB) [14], 5 in assay [15] and 2 in the assay with histones [16].
